Laboratory results from patent US12221481B2, “CD19 binding molecules and uses thereof” (Novartis AG, priority 2019, dated 2025).
Changes are numbered by the printed parent chain. One block for each molecule: values may come before it.

Assays:
[1] = Thermal stability of CD58 variants by differential scanning fluorimetry (DSF); assay type: physicochemical
Method: Disulfide stabilized variants were assessed for improved thermal stability using both differential scanning calorimetry (DSC) and differential scanning fluorimetry (DSF) using standard techniques. For DSF, 1-3 ug of each construct was add to 1× Sypro Orange (Thermo-Fisher) in 25 ul total volume in 96-well PCR plate. Using a Bio-Rad CFX96 RT-PCR system equipped with C1000 Thermal Cycler, the temperature was increased from 25° C. to 95° C. at 0.5° C./minute and the fluorescence monitored. The manufacturer-supplied software was used to determine Tm.

[2] = Thermal stability of CD58 variants by differential scanning calorimetry (DSC); assay type: physicochemical; conditions: HBS, 0.5 mg/mL
Method: For DSC, all samples were dialyzed into HEPES-buffered saline (HBS) and diluted to final concentration of 0.5 mg/mL. Tm and Tonset were determined using a MicroCal VP-Capillary DSC system (Malvern) by increasing temperature from 25° C. to 100° C. at 1° C./minute with a filtering period of 2 seconds and a mid-gain setting.

[3] = biological target: T1, human CD19 (Homo sapiens, UniProt P15391); experiment: Binding of TBMs to 300.19 cells overexpressing human CD19 (FACS); conditions: for binding to human CD19 compared with cyno CD19: 300.19 cells overexpressing human or cyno CD19
T1 construct: expressed in transfected cells; host or cells: mouse cell line 300.19
T1 sequence (P15391 20-556): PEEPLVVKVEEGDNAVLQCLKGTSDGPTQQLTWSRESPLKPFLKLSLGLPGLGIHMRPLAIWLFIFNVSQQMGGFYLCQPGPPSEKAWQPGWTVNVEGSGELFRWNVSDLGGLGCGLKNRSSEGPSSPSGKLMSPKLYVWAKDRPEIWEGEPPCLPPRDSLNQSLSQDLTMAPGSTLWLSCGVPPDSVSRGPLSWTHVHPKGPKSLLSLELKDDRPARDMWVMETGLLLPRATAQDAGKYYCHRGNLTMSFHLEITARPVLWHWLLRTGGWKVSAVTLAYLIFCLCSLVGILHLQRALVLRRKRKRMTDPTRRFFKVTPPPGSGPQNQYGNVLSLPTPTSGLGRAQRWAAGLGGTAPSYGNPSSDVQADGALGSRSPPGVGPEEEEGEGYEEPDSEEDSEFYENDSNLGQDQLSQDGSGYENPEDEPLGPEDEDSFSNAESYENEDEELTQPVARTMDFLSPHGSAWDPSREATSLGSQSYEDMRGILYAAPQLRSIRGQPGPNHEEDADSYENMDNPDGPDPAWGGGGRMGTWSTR
Method: (§1) The mouse cell line 300.19 was engineered to overexpress either human CD19 or cyno CD19. Cells were cultured in RPMI medium (Invitrogen #11875-093) with 10% FBS and 2-mercaptoethanol. Cells were harvested and resuspended in FACS buffer (PBS containing 1% FBS). 50,000 cells per well were plated in a V-bottom 96-well plate. Each cell line was incubated with serial dilutions of TBMs of Example 1A (i.e., R variants) for one hour on ice. Cells were centrifuged for 4 min at 400×g and washed with FACS buffer. This was repeated twice, and then the cells were incubated with Alexa-647 labeled anti-human Fc secondary antibody (Jackson Immuno #109-605-098) for 30 min on ice. The cells were washed twice, then resuspended in 100 μL of FACS buffer. FACS data was collected on a Beckman Coulter Cytoflex and analysis was performed using CytExpert v2.3.

[4] = system: cyno CD19; experiment: Binding of TBMs to 300.19 cells overexpressing cyno CD19 (FACS); design: species or system cynomolgus
Method: as §1

[5] = biological target: CD3-Fc; experiment: CD3 affinity measurement of anti-CD3 mAbs (Biacore T200); assay type: binding; conditions: as measured by Biacore; stated to be for identification, not absolute affinity values
Excerpt: For each trispecific construct, three plasmids were synthesized. […] It should be understood that with respect to the mentioned Biacore affinity values and relative terms in the construct names, these are used merely for identification purposes and are not intended to represent absolute affinity values. A second plasmid encoding a light chain was synthesized as a fusion comprising (in the N-terminal to C-terminal direction) (i) an anti-CD19 VL domain and (ii) a constant human kappa sequence. The proteins encoded by the first and second plasmids form the first half antibody. A third plasmid encoding the second half antibody was synthesized as a fusion comprising (in the N-terminal to C-terminal direction) (i) the IgV domain of CD58 (CD58-6) and (ii) a constant hIgG1 domain containing a T366W mutation for a knob to facilitate heterodimerization as well as silencing mutations.
Briefly, anti-hFc IgG1 was immobilized on a CM5 chip. After capturing CD3-Fc (1 μg/ml in HBS-EP+ buffer, flow rate of 50 μl/min, with a 30 second injection time) kinetic data was acquired by subsequent injections of 1:2 dilution series of the different antibodies in HBS-EP+ buffer.
Data were evaluated using the Biacore T200 evaluation software version 1.0. The raw data were double referenced, i.e. the response of the measuring flow cell was corrected for the response of the reference flow cell, and in a second step the response of a blank injection was subtracted. Finally, the sensorgrams were fitted by applying 1:1 binding model to calculate kinetic rate constants and dissociation equilibrium constants. Rmax was set at local. Data were processed individually for each run.

[6] = biological target: T2, recombinant human CD2 (Homo sapiens, UniProt P06729); experiment: Isothermal calorimetry (ITC) of CD58 variants binding to CD2; conditions: apparent KD, CD2 titrated into 10 μM CD58 variant, HBS
T2 construct: transiently produced and purified from HEK293 cells along with the CD2 extracellular domain; made in house; host or cells: HEK293 / HEK293F, transient
T2 sequence (P06729 with tags, fused parts or gaps): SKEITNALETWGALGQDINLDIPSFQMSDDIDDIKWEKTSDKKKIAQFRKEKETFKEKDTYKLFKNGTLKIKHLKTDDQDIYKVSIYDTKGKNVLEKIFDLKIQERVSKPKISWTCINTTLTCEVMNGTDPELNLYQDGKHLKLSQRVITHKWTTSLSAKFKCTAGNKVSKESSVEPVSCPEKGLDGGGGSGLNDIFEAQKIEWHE
Method: To ensure the binding affinity remained uncompromised by the additional of the stabilizing disulfide variance, isothermal calorimetry (ITC) was performed on the resulting recombinant CD58 proteins to determine their apparent KD and binding stoichiometry (n) to recombinant human CD2.
Briefly, recombinant human CD2 and recombinant human CD58 variants were dialyzed into HEPES-buffered saline (HBS). CD2 was diluted to final concentration of 100 μM, CD58 variants were diluted to 10 μM. CD2 was titrated into 10 μM of CD58 variants via multiple injections and ΔH (kcal/mole) determined using a MicroCal VP-ITC isothermal titration calorimeter (Malvern). Titrations of CD2 into HBS were used as a reference and KD and n determined from the resulting data.

B1: IgV V54C_G88C: CD58 IgV domain with V54 and G88 replaced by cysteines (stabilizing disulfide) (protein)
chain: SQQIYGVVYGNVTFHVPSNVPLKECLWKKQKDKVAELENSEFRAFSSFKNRVYLDTVSCSLTIYNLTSSDEDEYEMESPNITDTMKFFLYVLESGGGGSHHHHHHHH
Tm by Differential Scanning Fluorimetry (DSF) [1]: 76.5 °C
Tm by Differential Scanning Calorimetry (DSC) [2]: 80.9 °C
Tmonset by Differential Scanning Calorimetry (DSC) [2]: 66.7 °C

B2: IgV V45C_M105C: CD58 IgV domain with V45 and M105 replaced by cysteines (stabilizing disulfide) (protein)
chain: B1 chain with V16C, C25V, C59G, M76C
Tm by Differential Scanning Fluorimetry (DSF) [1]: 48.5 °C
Tm by Differential Scanning Calorimetry (DSC) [2]: 66.8 °C
Tmonset by Differential Scanning Calorimetry (DSC) [2]: 43.9 °C

B3: IgV V45C_M114C: CD58 IgV domain with V45 and M114 replaced by cysteines (stabilizing disulfide) (protein)
chain: B1 chain with V16C, C25V, C59G, M85C
Tm by Differential Scanning Fluorimetry (DSF) [1]: 63.5 °C
Tm by Differential Scanning Calorimetry (DSC) [2]: 72.5 °C
Tmonset by Differential Scanning Calorimetry (DSC) [2]: 49.6 °C

B4: CD58_IgV: recombinant human CD58 IgV domain (domain 1), no added disulfide (protein)
chain: B1 chain with C25V, C59G
Tm by Differential Scanning Fluorimetry (DSF) [1]: 48.5 °C
Tm by Differential Scanning Calorimetry (DSC) [2]: 60.9 °C
Tmonset by Differential Scanning Calorimetry (DSC) [2]: 46.3 °C

B6: NEG218: CD19 antibody; VH SEQ ID NO:39, VL SEQ ID NO:52 (antibody, V domains shown)
VH: EVQLVQSGAEVKKPGESLKISCKASGYSFTNYWMNWVRQMPGKGLEWMGMIHPSDSEIRLNQKFQGQVTLSVDKSIGTAYMQWSSLKASDTAMYYCSRWYYLSSPMDYWGQGTTVTVSS
VL: EIVMTQSPATLSVSPGERATLSCRASQDVGTAVAWYQQKPGQAPRLLIYWASTRHTGIPARFSGSGSGTEFTLTISSLQSEDFAVYFCQQYSSYPYTFGQGTKLEIK
binding to human CD19 compared with cyno CD19 [3]: greater affinity for cyno CD19 than human CD19

Now from value to molecule, other results behind:

binding to human CD19 compared with cyno CD19 [3]: bind equally to both human and cyno
B5: NEG258: CD19 antibody; VH SEQ ID NO:13, VL SEQ ID NO:26 (antibody, V domains shown)
VH: QVQLVQSGAEVKKPGASVKVSCKASGYTFTTYWIQWVRQAPGQRLEWMGAVYPGDADTRYTQKFQGRVTLTADRSASTAYMELSSLRSEDTAVYYCGRDAGLEYYALDYWGQGTLVTVSS
VL: EIVMTQSPATLSVSPGERATLSCRASQDVGTAVAWYQQKPGQAPRLLIYWASTRHTGIPARFSGSGSGTEFTLTISSLQSEDFAVYFCQQYANFPLYTFGQGTKLEIK
affinity for human CD19, NEG258 vs NEG218 [3]: greater affinity for both human CD19 and cyno CD19
affinity for cyno CD19, NEG258 vs NEG218 [4]: greater affinity for both human CD19 and cyno CD19

Kd [5]: 16 nM
B7: CD3hi: anti-CD3 antibody having high affinity to CD3 (in relative terms) (antibody, V domains shown)
VH: EVQLVESGGGLVQPGGSLKLSCAASGFTFNTYAMNWVRQASGKGLEWVGRIRSKYNNYATYYADSVKDRFTISRDDSKSTLYLQMNSLKTEDTAVYYCVRHGNFGNSYVSWFAYWGQGTLVTVSS
VL: QAVVTQEPSLTVSPGGTVTLTCRSSTGAVTTSNYANWVQQKPGQAPRGLIGGTNKRAPWTPARFSGSLLGDKAALTLSGAQPEDEAEYFCALWYSNLWVFGGGTKLTVL

Kd [5]: 30 nM
B8: CD3med: anti-CD3 antibody having medium affinity to CD3 (in relative terms) (antibody, V domains shown)
VH: B7 VH with S79N, L81A, Y114H
VL: B7 VL with R23G, T31S, D71G, F89Y

Kd [5]: 48 nM
B9: CD3lo: anti-CD3 antibody having low affinity to CD3 (in relative terms) (antibody, V domains shown)
VH: B7 VH with L81A
VL: B7 VL

Kd [6]: 570 nM
B10: CD58 Full ECD: recombinant human CD58 full extracellular domain (protein)
chain: SQQIYGVVYGNVTFHVPSNVPLKEVLWKKQKDKVAELENSEFRAFSSFKNRVYLDTVSGSLTIYNLTSSDEDEYEMESPNITDTMKFFLYVLESLPSPTLTCALTNGSIEVQCMIPEHYNSHRGLIMYSWDCPMEQCKRNSTSIYFKMENDLPQKIQCTLSNPLFNTTSSIILTTCIPSSGHSRHRGGGGSHHHHHHHH
Tm by Differential Scanning Fluorimetry (DSF) [1]: 59.5 °C
Tm by Differential Scanning Calorimetry (DSC) [2]: 65.0 °C
Tmonset by Differential Scanning Calorimetry (DSC) [2]: 48.8 °C
